Measurements published in paper PMC4456219.

Tests used:
[1] = target: MBP-Vps24-2-ssrA (Saccharomyces cerevisiae) (UniProt P36095)
[2] = target: mixed Vps4 hexamer of full-length Vps4^CF and Vps4^(CF 206C ΔMIT) (Saccharomyces cerevisiae) (UniProt P52917); assay: cross-linking

Row | HDX-MS: unfolded proportion of the MBP peptide 347-360 at 10, 30 and 60 s [1] [%] | cross-linking efficiency relative to Vps24-2^136C [2] [%] | Molecule
1 | 30 |  | ClpX (from UniProt P0A6H1 1-424) (enzyme)
2 |  | 60 | Vps24-2^92C (I92C single cysteine mutant of Vps24-2) (protein, Cys92 activated as a mixed disulfide with DTNB) MDYIKKAIWGPDPKEQQRRIRSVLRKNGRNIEKSLRELTVLQNKTQQLIKKSAKKNDVRTVRLYAKELYQINKQYDRMYTSRAQLDSVRMKCDEAIRMNTLSNQMADSAGLMREVNSLVRLPQLRNTMIELEKELMKSGIISEMVDDTMESVGDVGEEMDEAVDEEVNKIVEQYTNEKFSQLQSTPQNLVSNAPIAETAMGIPEPIGAGSEFHGNPDDDLQARLNTLKKQT
